These results are taken from paper PMC4048260.

The term stoichiometry N denotes the number of molecules, sites or subunits per partner or assembly.

Experiment [1] addresses NL4-3/ADA gp140 trimer (hybrid: NL4-3 gp140 with the V3 spanning region of the R5 strain ADA) (HIV-1 (subtype B, strain NL4-3) | HIV-1 (subtype B, strain ADA)). Kind of experiment: negative-stain electron microscopy, single particle 3D reconstruction; purified trimers, ~0.02 mg/ml, 2% uranyl formate, about 3,000 particles per data set, C3 symmetry applied, resolution ~25 Å.

For experiment [2], the target named is NL4-3 gp140 trimer (soluble, uncleaved gp140 from the X4 HIV-1 subtype B strain NL4-3) (HIV-1 (subtype B, strain NL4-3)). The description is as above.

Consider “NL4-3/ADA gp140 trimer (hybrid: NL4-3 gp140 with the V3 spanning region of the R5 strain ADA) (domain or fragment)”, for which the stoichiometry N in experiment [1] is 3. “NL4-3 gp140 trimer (soluble, uncleaved gp140 from the X4 HIV-1 subtype B strain NL4-3) (domain or fragment)” returned a stoichiometry N in experiment [2] of 3.
